Results published in patent publication US20210355235A1, “Compositions and Methods For Treating Cancer with Anti-Renalase antibodies and Anti-PD1 antibodies” (YALE UNIVERSITY, priority 2017, published 2021).
Entries after “also recorded” stand apart in the source; their conditions may differ.

Experiments:
A375.S2 melanoma cells = test: cell viability, WST-1 assay; assay type: cell-based, human; settings: WST-1, 72 hrs
Procedure: FIG. 19, comprising FIGS. 19A through 19D, is a series of images and charts showing that inhibition of RNLS signaling is cytotoxic to melanoma cells in vitro. […] FIG. 19B comprises two charts depicting relative cell viability: Left panel: Cells were treated with indicated antibodies for 72 hrs and cell viability was determined using WST-1; m28-RNLS (also known as 1D-28-4), m37-RNLS (also known as 1D-37-10): monoclonal antibodies raised against RNLS peptide RP220; Right panel: A375.S2 cells treated with increasing doses of m28-RNLS for 72 hrs and cell viability determined with a WST-1 assay; n=6, * indicates p<0.05 and ** indicates p<0.005. FIG. 19C comprises representative photos of A375.S2, SkMel28, and SkMel5 after 72 hrs incubation with either control rabbit IgG or m28-RNLS. FIG. 19D is a chart depicting relative cell viability, comprising amino acid (AA) sequence of RNLS peptide antagonist (RP220A).
Total cell number and percentage of live cells were assessed by trypan blue exclusion, and cells were counted using a BioRad TC10 automated cell counter. For additional studies, cell viability was determined using WST-1 reagent (Roche Diagnostics, Indianapolis, Ind., USA) according to the manufacturers' instruction. Absorbances were read using a microplate reader (Power Waves XS, BioTek Instruments, Winooski, Vt., USA).

BxPC3 xenografted tumors = test: BxPC3 pancreatic xenograft in athymic nude mice; assay type: in vivo, mouse
Procedure: Immunohistochemistry was performed as described previously (Guo et al., 2012 Cancer Science. 103(8):1474-80). Briefly tumor tissues were formalin-fixed, paraffin-embedded and cut into 5-m sections on glass slides. The slides were de-paraffinized and hydrated, followed by antigen retrieval in a pressure cooker containing 10 mM sodium citrate, pH6 buffer. The sections were blocked in 3% hydrogen peroxide for 30 min and 2.5% normal horse serum in PBS/0.1% Tween20 for 1 h followed by incubation with primary antibody and isotype control IgG overnight at 4° C. The following antibodies were used in this study: m28-RNLS at 500 ng/ml; goat polyclonal anti-RNLS at 250 ng/ml (Abcam, AB31291); rabbit monoclonal anti Ki67 (Vector Lab, VP-RM04, 1:100); rabbit monoclonal anti p21 and phspho-Tyr^705-Stat3 (Cell Signaling Technologies, #2947, 1:100 and #9145, 1:400, respectively). ImmPRESS peroxidase-anti-rabbit IgG (Vector Laboratories, Burlingame, Calif., USA) was used to detect primary antibodies. The color was developed using a Vector DAB substrate kit and counterstained with hematoxylin (Vector Laboratories). Slides were observed and photographed using an Olympus BX41 microscope and camera (Olympus America Inc, Center Valley, Pa., USA).
Female athymic, 18-20 g nude mice (nu/nu) were obtained from Charles River (Willimantic, Conn.) and housed in microisolator cages, with autoclaved bedding in a specific pathogen-free facility, with a 12-h light/dark cycle.
Xenograft tumors were established by subcutaneous injection of BxPC3 cells (2×10^6 in 100 μl of PBS, pH 7.6). When the tumors reached a volume of 50-100 mm^3, the mice were divided a control group (n=14 treated with rabbit IgG, 40 μg by intraperitoneal injection (IP)), and an experimental group (n=14) that received m28-RNLS (40 μg IP, every 3 days). Tumor size was measured with digital calipers and volume was calculated according to the formula (length×width^2)×π/2. In another group of animals (n=6 each) sh-RNLS or sh-Control Panc1 cells (2×10^6 in 100 μl of PBS, pH 7.6) were injected subcutaneously. These animals received no further treatments, and tumor size and volume were measured for up to 30 days.
At the end of the study, the mice were sacrificed, the tumors were excised and immediately snap-frozen in liquid nitrogen and stored at −80° C. Apoptosis was examined using the TUNEL assay (Roche in situ Apoptosis Detection System), according to the manufacturer's instructions. Sections were examined by light microscopy and the apoptosis index was determined by counting ≥1000 cells in 5 randomly selected high-power fields (×200 magnification).

[1] = test system: YUMM mouse melanoma tumor; test: anti-PD1 resistant YUMM melanoma engrafted into immunocompetent C57B6 mice; assay type: in vivo; settings: qPCR
Procedure: Experiments were conducted to assess the synergism between anti-RNLS antibody and anti-PD1 antibody against a tumor cell line that is resistant to anti-PD1 agents (i.e., YUMM) (FIG. 35). The anti-PD1 resistant mouse melanoma cell line (YUMM) was engrafted into immunocompetent C57B6 mice. After the engrafted YUMM tumor volume reached about 100 mm^3 (i.e., day 0), treatments were administered on days 0, 7, 9, and 12, as indicated by the arrows on […].
Experiments were conducted to measure PD1 and PD-L1 mRNA expression by qPCR in unfractioned tumor mass after treatment with anti-RNLS antibody (m28) alone, anti-PD1 antibody alone, and the combination of anti-RNLS antibody (m28) and anti-PD1 antibody (FIG. 36).
Experiments were conducted to measure CD8a mRNA expression by qPCR in unfractioned tumor mass after treatment with anti-RNLS antibody (m28) alone, anti-PD1 antibody alone, and the combination of anti-RNLS antibody (m28) and anti-PD1 antibody.

Panc1 cells = test: western blot of p38 and STAT3 phosphorylation; assay type: cell-based, human
Description: FIG. 27, comprising FIGS. 27A through 27E, is a series of images and charts showing the interaction between RNLS and STAT3, and the mechanistic model of inhibition by m28-RNLS. FIG. 27A is an image showing activation of STAT3 by RNLS in Panc1 cells; Panc1 cells in culture treated with either BSA or RNLS, and STAT3 phosphorylation assessed by western blot; p-Ser^727-STAT3: phosphorylation at serine 727, p-Y^705-STAT3: phosphorylation at tyrosine 705; representative study. FIG. 27B is a chart depicting the quantification of STAT3 phosphorylation with RNLS; signals normalized to total STAT3; n=3, *=P<0.05. […] FIG. 27D is a chart showing the quantification of STAT3 phosphorylation with m28-RNLS; signals normalized to GAPDH loading control; n=3, *=P<0.05. FIG. 27E depicts the proposed mechanistic model for antitumor activity of m28-RNLS.

B1: m28-RNLS: rabbit anti-renalase monoclonal raised against RNLS peptide RP-220; heavy chain SEQ ID NO:9, light chain SEQ ID NO:10 (antibody)
heavy: METGLRWLLLVAVLKGVQCQSVEESGGRLVTPGTPLTLTCTVSGFSLSSFAVGWVRQAPGKGLEYIGIISSVGITRYASWAAGRFTISKTSTTVDLKITSPTTEDTATYFCARYGYSGDVNRLDLWGQGTLVTVSSGQPKAPSVFPLAPCCGDTPSSTVTLGCLVKGYLPEPVTVTWNSGTLTNGVRTFPSVRQSSGLYSLSSVVSVTSSSQPVTCNVAHPATNTKVDKTVAPSTCSKPTCPPPELLGGPSVFIFPPKPKDTLMISRTPEVTCVVVDVSQDDPEVQFTWYINNEQVRTARPPLREQQFNSTIRVVSTLPIAHQDWLRGKEFKCKVHNKALPAPIEKTISKARGQPLEPKVYTMGPPREELSSRSVSLTCMINGFYPSDISVEWEKNGKAEDNYKTTPAVLDSDGSYFLYSKLSVPTSEWQRGDVFTCSVMHEALHNHYTQKSISRSPGK
light: MDTRAPTQLLGLLLLWLPGATFAQVLTQTASPVSAAVGGTVTINCQASQSVYDNNNLAWYQQKPGQPPKQLIYGASTLASGVSSRFKGSGSGTQFTLTISGVQCDDAATYYCLGEFSCSSADCFAFGGGTEVVVKGDPVAPTVLIFPPSADLVATGTVTIVCVANKYFPDVTVTWEVDGTTQTTGIENSKTPQNSADCTYNLSSTLTLTSTQYNSHKEYTCKVTQGTTSVVQSFNRGDC
modifications: 1D-28-4 full length heavy chain amino acid; 1D-28-4 full length light chain amino acid
cell viability (A375.S2 melanoma cells): increasing levels of cytotoxicity in correlation with increasing treatment concentrations | decrease in Ki67 expression vs IgG (BxPC3 xenografted tumors; mouse, in vivo): 2.5 fold | increase in apoptosis (TUNEL staining) vs IgG (BxPC3 xenografted tumors; mouse, in vivo): ~2 fold | increase in p21 expression vs IgG (BxPC3 xenografted tumors; mouse, in vivo): ~4 fold | p21 positive cells (BxPC3 xenografted tumors; n=14): 178.1 ± 11.4 positive cells/high power field | TUNEL positive cells (apoptosis) (BxPC3 xenografted tumors; n=14, IgG 14.8±2.3): 28.4±3.3 positive cells/high power field | Ki67 positive cells (BxPC3 xenografted tumors; n=14, IgG 340.2±11.9): 137.1±14.9 positive cells/high power field | tumor volume (BxPC3 xenografted tumors; vs rabbit IgG, up to 3 weeks, 40 μg IP every 3 days): inhibited PDAC growth; also recorded: significant decrease in tumor volume | CD8a mRNA expression in unfractioned tumor mass (cytotoxic T cells) [1]: activates cytotoxic T cells | p38 MAPK phosphorylation (Panc1 cells; beginning at day 1 post treatment): sustained phosphorylation | STAT3 phosphorylation (p-Y705-STAT3) after antibody (Panc1 cells; up to 4 days): long-lasting and sustained decrease; also recorded: inhibits STAT3 phosphorylation
